± gives the uncertainty stated by the source.
assay: amyloid nucleation score (Sup35N fusion, yeast selection) (log enrichment); library NNK2; higher = more nucleation; inactive = no reads after selection
How it was run: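 Peptides of 20 random codons, each fused to Sup35N, were expressed in psi-negative yeast. Cells were induced with 100 μM copper sulfate for 24 hours and grown 7 days at 30°C on medium lacking adenine and uracil, and plasmid inserts before and after selection were Illumina-sequenced. Nucleation scores are DiMSum log enrichments of output over input reads, centred on the mode score of non-aggregating sequences, and sequences under 100 input reads were excluded.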

Row | Substance | amyloid nucleation score
1 | TGGRNVHNCNNNHASSWPRC | -1.05 ± 0.76
2 | TGHWQLQNSSQA | 0.841 ± 0.28
3 | TGILMWAGLQVHV | 1.86 ± 0.13
4 | TGWSGRGMVKSDPYRACGGD | -0.11 ± 0.35
5 | TGYVTRIVAAFCSQKIFVWV | -0.547 ± 0.49
6 | THDKLHFLAFVFSPLFLTTM | inactive
7 | THSHTSCKDASSEMRSPCNV | 0.264 ± 0.33
8 | THSNWTKNSVSSIYCIKILF | 6.647 ± 0.037
9 | THSWGFSLYTFLVYINLSYI | -0.545 ± 1
10 | THTGLGG | 0.654 ± 0.8
11 | THVRVEVLS | inactive
12 | THYNVGLINNIINNLILVYI | 4.52 ± 0.12
13 | TICDTLGYLTRSWYLSYESS | -0.545 ± 0.32
14 | TICWHGFNR | 0.119 ± 0.76
15 | TIFMAYTWLNYTVAFLSNVR | -1.01 ± 0.61
16 | TIFSHVYLALLR | 0.382 ± 0.8
17 | TIGANPRVLDG | 0.316 ± 0.39
18 | TIIIREQSKPFPCLE | 0.931 ± 0.74
19 | TIKTALMYIMRYSFRSYRDF | -1.02 ± 0.61
20 | TILCFCAC | 4.86 ± 0.056
21 | TIVWLGRPLYTGFKNTKRGH | inactive
22 | TIWRCFLT | 0.685 ± 0.33
23 | TKAYNTFLRPETVRLSESTK | 0.9 ± 0.18
24 | TKFMIYRDYSLVKSHH | inactive
25 | TKQPSFTCPGLSSRILRRLK | 3.04 ± 0.18

Row | Substance | amyloid nucleation score
26 | TKTTWSDPGG | 0.922 ± 0.43
27 | TKVMQGVNSMARGV | 1.08 ± 0.39
28 | TKYDLHPMIVSFECDRHLMW | 0.411 ± 0.49
29 | TLAFCFFLTKLSVQCFLYPP | 0.241 ± 0.8
30 | TLCMSRGNSYCCMQSFSEKD | 5.05 ± 0.063
31 | TLCVAIMYMHLGYAL | 0.178 ± 0.5
32 | TLCVGVFAHTAMRCRECHAA | 5.479 ± 0.043
33 | TLFLSNFRFRCRFPDHALIS | -1.3 ± 0.48
34 | TLFRSELFAV | 0.495 ± 0.56
35 | TLKLALEFLNEIYEEPVKCR | -1.36 ± 0.48
36 | TLKRSRPVLYNLYNGFVVVA | 2.25 ± 0.21
37 | TLLVKSMGGSLET | 4.11 ± 0.044
38 | TLLYKFTDCTVMMAIRVARR | 1.45 ± 0.52
39 | TLMYSQSAIDWTMSSPGRCR | 1.49 ± 0.36
40 | TLQMGQSMPSFFGLRWAVYR | 0.503 ± 0.43
41 | TLRVLCTVCYSMDRVAA | inactive
42 | TLSCKFIKGWLIQQYSHNKD | -0.187 ± 0.76
43 | TLSCSYVCAPTVYVQSSRPT | 1.27 ± 0.18
44 | TLSVTEGYSNLTSMWYGCKR | 3.23 ± 0.15
45 | TLTILRVTCPLFSDGIMFKR | 0.609 ± 0.47
46 | TLTNHWLRSLCITSKGTLSC | inactive
47 | TLTRGSISSIVDASWNMEKT | -0.061 ± 0.46
48 | TMELFLRRFYIWIKDIDNGR | inactive
49 | TMGYEFMQILLDLRNLSCSY | 3.64 ± 0.097
50 | TMHYYLWDSN | 4.88 ± 0.1

Row | Substance | amyloid nucleation score
51 | TMILCRKYNASWMIVARNDL | -0.311 ± 1.1
52 | TMLETLRARADLMCQVWYSV | 0.964 ± 0.4
53 | TMWRVIGSVYFVKFFSATLG | -0.07 ± 0.43
54 | TNCTDEGIILCHP | -0.19 ± 1.1
55 | TNDASYSIDLWW | -0.304 ± 0.18
56 | TNDHQFCESNMRVMSEGIGP | -0.284 ± 1.1
57 | TNHFN | -1.08 ± 0.61
58 | TNKKVVRYPSPLPERSYGMR | 0.012 ± 0.74
59 | TNPASAGTYSRSYEFCSLRL | 1.59 ± 0.18
60 | TNPSSKPAWVTSR | 0.007 ± 0.79
61 | TNRLMVEVALIFRSINCVNR | -0.561 ± 0.38
62 | TPATVEYGDNCVYDY | -0.987 ± 0.44
63 | TPENFHLR | inactive
64 | TPLDIICEIMNFIYNTVFRL | -0.501 ± 1.1
65 | TPLTVYDFPYNEGCCAV | 1.7 ± 0.34
66 | TPNQGNPSGYFFDNSFMKPF | inactive
67 | TPNYLSHTVVCVCINNVLIF | 4.74 ± 0.058
68 | TPRIS | 0.647 ± 0.8
69 | TPTGSVLAYRVTISTKVVSL | 1.09 ± 0.38
70 | TPTYLRYIVVIYL | 2.41 ± 0.11
71 | TPVWVGVSLVPPIAPTTWIN | 0.288 ± 0.28
72 | TQLASIQPSVPCYIVYTVGL | 3.01 ± 0.085
73 | TQLTDASSELLPPGSRLQCS | 1.03 ± 0.36
74 | TQSIALINTRVELTVDEFSF | -0.111 ± 0.65
75 | TQVLYSSCFVVVLSYLSRQD | 4.51 ± 0.086

Row | Substance | amyloid nucleation score
76 | TRASYFCQSTANYSVSRSNM | 1.8 ± 0.3
77 | TRFFTSLK | -0.402 ± 0.61
78 | TRFLPDAY | -0.903 ± 0.32
79 | TRFRRDESRTSEDLRPRNRR | 1.26 ± 0.23
80 | TRMMCKRFRIML | 0.544 ± 0.49
81 | TRSSNNPPGMVDT | -0.959 ± 0.38
82 | TRWSHK | inactive
83 | TSCSTTAALEVNIRMTDVGV | 1.59 ± 0.14
84 | TSESSV | -0.36 ± 0.64
85 | TSFNQELEFFLCGGDVDCNR | -1.17 ± 1.1
86 | TSGQHD | -0.133 ± 0.61
87 | TSISYLRVYTRSFMRSLSGL | inactive
88 | TSLTQDLEMVLSFNFCMGLA | -0.158 ± 0.44
89 | TSLYRVSKM | -0.945 ± 0.76
90 | TSMSYLLRFVCGFRCTYSLC | 0.854 ± 0.52
91 | TSMVNSFYKTRGTIK | inactive
92 | TSSMTNERDNLILV | -0.187 ± 0.42
93 | TSSYTWGVEPDASRTILVDT | 0.4 ± 0.32
94 | TSTLNRDDG | 0.367 ± 0.34
95 | TSYACRVIAMRVVCPCRQLR | inactive
96 | TTAWSVEINGTMRNDDMSAS | 2.2 ± 0.091
97 | TTFILNMMLYNSCTYVYMSL | 8.549 ± 0.073
98 | TTGRWVVLRG | 0.342 ± 0.39
99 | TTLRPLYSTWGSQMVFPGLC | 0.409 ± 0.8
100 | TTMSTGARGLSRCLSVVFRR | 3.08 ± 0.12

Row | Substance | amyloid nucleation score
101 | TTMYARFIFIVRDSEGMYCS | 7.089 ± 0.064
102 | TTQDHFFSL | inactive
103 | TTRSNEKIVFHGWTSVINRH | -0.696 ± 0.76
104 | TTTQKGCGVYVAREVSWGLG | 2.56 ± 0.093
105 | TTTWGENLFASNYLLSKTAG | -0.088 ± 1.1
106 | TTVKYG | 0.553 ± 0.22
107 | TTVSWENGSRVINIVFILMF | 5.045 ± 0.04
108 | TTVSYISERFTYLGSL | 3.84 ± 0.12
109 | TVAWTSRLFSLAGLLHFDR | 4.82 ± 0.062
110 | TVFDRNMDTGIMCIVMSWDN | -0.318 ± 0.48
111 | TVFFIVPLCSLLDKVNSLGA | 3.34 ± 0.086
112 | TVFSIMLLSRM | -0.002 ± 1
113 | TVFSYSWQFYGMHSISDYMI | inactive
114 | TVIGFRDRDSWSMEMIEDHC | -0.272 ± 0.43
115 | TVKCLYMGNGAWKTASSVCG | 0.482 ± 0.38
116 | TVLGTCPVNKVVDNSREAGS | 1.36 ± 0.49
117 | TVLILPPHTRSDINFMVHYT | 4.43 ± 0.063
118 | TVPRFEKHFRAVVNLLGRND | 0.277 ± 0.46
119 | TVSMNMRCCVECHYIKERYL | 4.16 ± 0.051
120 | TVSNR | -1.27 ± 0.37
121 | TVSRLYEYWLLRMCIY | -0.413 ± 1
122 | TVVSVGVVRVHATLRVKESG | 5.661 ± 0.056
123 | TVWGYSSDLKLLEFISIGTQ | 2.71 ± 0.12
124 | TWDSRYGVACLV | -0.325 ± 0.33
125 | TWFCVGKVASSMWVYQGVNF | 0.662 ± 0.52

Row | Substance | amyloid nucleation score
126 | TWFRSVMYPDLSHFYMF | inactive
127 | TWNSANFFIKLRQSVFYLSR | -1.46 ± 1.1
128 | TWSEWSTCRMGATRSH | 0.301 ± 0.27
129 | TWTRLALFMLIPSG | 0.464 ± 0.35
130 | TWVNYIIRKVRLVTIRLYVY | -0.011 ± 0.65
131 | TYALVTRLFCFLVSEHWVTL | -0.047 ± 0.26
132 | TYCFLGFQNIPSMLNPMNFG | 2.98 ± 0.046
133 | TYDYMKRDIMFTWLKRERKA | 1.04 ± 0.33
134 | TYFLGPLVSNSLRYY | 4.027 ± 0.04
135 | TYGLWRFGTRGKDEFKSPNR | 6.16 ± 0.058
136 | TYGWSLFERKLNPRGCWFPN | -0.082 ± 0.63
137 | TYIPGLVRTSLCGVA | -0.245 ± 0.35
138 | TYMWTSLEST | inactive
139 | TYSLICQSTTKRFWVWKATL | -0.619 ± 1
140 | TYSLKFGSVVGRNYNLGY | 2.08 ± 0.1
141 | TYSTLFDFRMI | 0.099 ± 0.31
142 | TYTYSSCRIARRS | -0.559 ± 0.26
143 | TYYVYEVGVS | -0.203 ± 0.41
144 | VACIFCLSSPHPC | 6.48 ± 0.084
145 | VALHWNWDLFLYVRYFFDHT | inactive
146 | VAMSCGRSYLKCLMACGLHM | -0.053 ± 1
147 | VANRIMLGSLGMGFVVGSSM | -0.033 ± 0.43
148 | VARVY | -0.625 ± 0.36
149 | VASGDSVLPKDIVFFSSIQG | -0.653 ± 0.29
150 | VATAAEWVQAGLE | 2.32 ± 0.11

Row | Substance | amyloid nucleation score
151 | VATNCINMGS | -0.197 ± 0.79
152 | VAVTLNFLIGVIGCRGILMG | 5.482 ± 0.043
153 | VAWVYSVLKCVSGLVG | -0.013 ± 0.4
154 | VAYLNLCLS | inactive
155 | VCCFLLHQN | 6.88 ± 0.083
156 | VCFML | 0.94 ± 0.52
157 | VCGFRAIVVVDPYWQPGKMA | 2.42 ± 0.13
158 | VCIVDLVS | -0.203 ± 0.65
159 | VCNRPI | -0.78 ± 0.26
160 | VCRPDINVAHHPGFNFIVRS | inactive
161 | VCSPIG | 0.063 ± 0.45
162 | VCYLLFFKRSSYKFSINHYC | inactive
163 | VDCCSFSLWVVW | 3.98 ± 0.093
164 | VDETNAKL | 0.785 ± 0.3
165 | VDFFVFHLVTDSIMSYAHCM | 0.633 ± 0.66
166 | VDFRFMMHPSEEWMSNHLPR | 1.14 ± 0.24
167 | VDNYEQLTMKNEHETNT | -0.902 ± 0.45
168 | VDRIESVSYLYSHDYNESGP | -0.212 ± 0.53
169 | VDSPKREVNMCVWLLRRKQR | 0.21 ± 0.34
170 | VDYASGGARGFGMVLRAFLE | 0.132 ± 0.42
171 | VDYGQRAPTCITSHYHLNRC | 0.227 ± 1.1
172 | VDYTVFGGPTQRIGER | 0.073 ± 0.3
